According to PMC4560963 (Molecular cell, 2015):

Target: the molecule itself
Assay: native gel or EMSA

B1: recombinant His6-TAF11 (natural protein)
chain: not shown
  stoichiometry N: 4
